Measured values published in US20260125454A1 (SHANGHAI JUNSHI BIOSCIENCES, published 2026).
Where a chain is given by its changes, count along the chain named.

Molecular target: T1, Biotin-huCGRPaSA (human, not fully specified; biotin (position not given))
T1 construct: exact construct ('aSA') not explained; also called Biotin CGRPaSA; full-length (1-37) CGRP
T1 peptide: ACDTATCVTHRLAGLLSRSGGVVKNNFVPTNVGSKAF
Test: ELISA, supernatant; relative to chimeric C245
Experimental: Biotin CGRPaSA was diluted with PBS (Hyclone) to 1.0 μg/mL, and the dilution was added to a microplate at 100 μL/well. The plate was let stand in an incubator at 37° C. and coated for 90 min and then washed, and 2% BSA was added to the plate at 200 μL/well. The plate was incubated in an incubator at 37° C. for 90 min and then washed. The humanized antibodies in Table 8 and the reference antibody (chimeric antibody C245) were diluted to 1000 ng/mL with a diluent (2% BSA) with a dilution factor of not more than 10. Then, the chimeric antibodies and the reference antibody were serially 2.5-fold diluted on a sample dilution plate. All the chimeric antibody solutions and the reference antibody solution were added into plates at 100 μL/well, and the plates were incubated in a thermostat incubator at 37° C. for 60 min and washed. An HRP-conjugated goat anti-human antibody IgG (manufacturer: Sigma, Cat. No. A0170; Fc specificity) was diluted 5000-fold with 2% BSA and added into the plates at 100 μL/well, and the plates were incubated in the thermostat incubator at 37° C. for 60 min and washed. Chromogenic reagent TMB was carefully added at 100 μL/well to avoid bubbles, and the system was incubated at 37° C. for 15 min away from light for chromogenic reaction. Finally, a 2 M hydrochloric acid solution was added at 100 μL/well to stop the reaction while avoiding bubbles, and the plates were read on a microplate reader within 10 min (wavelength: 450/620 nm).

B1: hu152 (antibody, V domains shown)
VH: QVQLVQSGAEVKKPGASVKVSCKTSGYTFTDYNMHWVRQAPGQRLEWMGYISPYNGGTAYNQKFKFRVTLTVDTSSSTAYMELSSLRSEDTAVYYCAREGLGGYWGQGTLVTVSS
VL: DIVLTQSPDSLAVSLGERATINCQASQNIDGNTYMNWYQQKPGQPPKVLIYSIFNLESGVPDRFSGSGSGTDFTLTISSLQAEDVAVYYCQQSNDYPYTFGQGTKLEIK
notes: 3E5 HC-1/2B8 LC2-1
  Relative binding activity, %: 109%

B2: hu210 (antibody, V domains shown)
VH: B1 VH with T24A, R44G, S52Y, G57H, A59V, K65R, F66N, S84R, E89D
VL: DIVLTQSPASLAVSPGQRATITCKASQNIDYDGYAYLNWYQQKPGQPPKVLIYSVFNLESGVPARFSGSGSGTDFTLTINPVEADDTANYYCQQSNEFPYTFGQGTKLEIK
notes: 3H10 HC-2/1A2 LC2-2
  Relative binding activity, %: 73%

B3: hu79 (antibody, V domains shown)
VH: QVQLVQSGAEVKKPGASVKVSCKASGYTFIDFNMHWVRQAPGQRLEWMGYIYPYNADVVYNQDFTNRVTLTVDTSSSTAYMELSSLRSEDTAVYYCAREGLGGYWGQGTLVTVSS
VL: B2 VL with D85N
notes: 1F5 HC-5/1A2 LC2-1
  Relative binding activity, %: 80%

B4: hu92 (antibody, V domains shown)
VH: B1 VH with T24A, I51V, S52Y, T58S, F66S
VL: B2 VL with D85N
notes: 2A2 HC-1/1A2 LC2-1
  Relative binding activity, %: 32%

B5: hu111 (antibody, V domains shown)
VH: B1 VH with T24A, R44G, Y50N, S52Y, A59V, K65N, F66N, S85R, E89D
VL: B2 VL with Y31F, L37M, N96H, F98V
notes: 2B8 HC1-1/1F5 LC1-3
  Relative binding activity, %: 46%

B6: hu106 (antibody, V domains shown)
VH: B1 VH with T24A, R44G, Y50N, S52Y, A59V, K65N, F66N, S85R, E89D
VL: B2 VL
notes: 2B8 HC1-1/1A2 LC2-2
  Relative binding activity, %: 38%

B7: hu20 (antibody, V domains shown)
VH: B1 VH with T24A, S52F, G57V, T58A, A59V, Q62R, K65R, F66S
VL: B2 VL with Y31F, L37M, N96H, F98V
notes: 1B2 HC-2/1F5 LC1-3
  Relative binding activity, %: 40%

B8: hu204 (antibody, V domains shown)
VH: QVQLVQSGAEVKKPGASVKVSCKASGYTFTDYNMHWVRQAPGQGLEWMGYIYPYNGHTVYNQKFRNRVTMTVDTSSSTAYMELRSLRSDDTAVYYCAKEGLGGYWGQGTLVTVSS
VL: B1 VL
notes: 3H10 HC-1/2B8 LC2-1
  Relative binding activity, %: 68%

B9: hu54 (antibody, V domains shown)
VH: B3 VH with I30T, R44G, A56G, D63N, S84R, E89D
VL: B2 VL
notes: 1F5 HC-3/1A2 LC2-2
  Relative binding activity, %: 22%

B10: hu80 (antibody, V domains shown)
VH: B3 VH
VL: B2 VL
notes: 1F5 HC-5/1A2 LC2-2
  Relative binding activity, %: 99%

B11: hu7 (antibody, V domains shown)
VH: B8 VH with Y52F, H57V, T58A, Q62R, N66S, M70L, V72I, K98R
VL: B2 VL with Y31F, L37M, N96H, F98V
notes: 1B2 HC-1/1F5 LC1-3
  Relative binding activity, %: 80%

B12: hu53 (antibody, V domains shown)
VH: B3 VH with I30T, R44G, A56G, D63N, S84R, E89D
VL: B2 VL with D85N
notes: 1F5 HC-3/1A2 LC2-1
  Relative binding activity, %: 13%

B13: hu191 (antibody, V domains shown)
VH: B1 VH with G56A
VL: B1 VL
notes: 3E5 HC-4/2B8 LC2-1
  Relative binding activity, %: 68%

B14: hu15 (antibody, V domains shown)
VH: B1 VH with T24A, S52F, G57V, T58A, A59V, Q62R, K65R, F66S
VL: B2 VL
notes: 1B2 HC-2/1A2 LC2-2
  Relative binding activity, %: 44%

B15: hu93 (antibody, V domains shown)
VH: B1 VH with T24A, I51V, S52Y, T58S, F66S
VL: B2 VL
notes: 2A2 HC-1/1A2 LC2-2
  Relative binding activity, %: 45%

B16: hu2 (antibody, V domains shown)
VH: B8 VH with Y52F, H57V, T58A, Q62R, N66S, M70L, V72I, K98R
VL: B2 VL
notes: 1B2 HC-1/1A2 LC2-2
  Relative binding activity, %: 64%

B17: hu118 (antibody, V domains shown)
VH: B8 VH with Y50N, H57G, R65N, M70L, K98R
VL: B2 VL with D85N
notes: 2B8 HC1-2/1A2 LC2-1
  Relative binding activity, %: 60%

B18: hu14 (antibody, V domains shown)
VH: B1 VH with T24A, S52F, G57V, T58A, A59V, Q62R, K65R, F66S
VL: B2 VL with D85N
notes: 1B2 HC-2/1A2 LC2-1
  Relative binding activity, %: 32%

B19: hu41 (antibody, V domains shown)
VH: B3 VH with I30T, A56G, D63N
VL: B2 VL
notes: 1F5 HC-2/1A2 LC2-2
  Relative binding activity, %: 61%

B20: hu124 (antibody, V domains shown)
VH: B8 VH with Y50N, H57G, R65N, M70L, K98R
VL: B2 VL with Y31F, L37M, N96H, F98V
notes: 2B8 HC1-2/1F5 LC1-3
  Relative binding activity, %: 96%

B21: hu165 (antibody, V domains shown)
VH: B1 VH with T24A
VL: B1 VL
notes: 3E5 HC-2/2B8 LC2-1
  Relative binding activity, %: 87%

B22: hu105 (antibody, V domains shown)
VH: B8 VH with Y50N, H57G, R65N, M70L, R84S, S85R, K98R
VL: B2 VL with D85N
notes: 2B8 HC1-1/1A2 LC2-1
  Relative binding activity, %: 31%

B23: hu40 (antibody, V domains shown)
VH: B3 VH with I30T, A56G, D63N
VL: B2 VL with D85N
notes: 1F5 HC-2/1A2 LC2-1
  Relative binding activity, %: 49%

B24: hu46 (antibody, V domains shown)
VH: B3 VH with I30T, A56G, D63N
VL: B2 VL with Y31F, L37M, N96H, F98V
notes: 1F5 HC-2/1F5 LC1-3
  Relative binding activity, %: 25%

B25: hu178 (antibody, V domains shown)
VH: B1 VH with T24A, R44G, S85R, E89D, A92V
VL: B1 VL
notes: 3E5 HC-3/2B8 LC2-1
  Relative binding activity, %: 65%

B26: hu119 (antibody, V domains shown)
VH: B8 VH with Y50N, H57G, R65N, M70L, K98R
VL: B2 VL
notes: 2B8 HC1-2/1A2 LC2-2
  Relative binding activity, %: 51%

B27: hu59 (antibody, V domains shown)
VH: B3 VH with I30T, R44G, A56G, D63N, S84R, E89D
VL: B2 VL with Y31F, L37M, N96H, F98V
notes: 1F5 HC-3/1F5 LC1-3
  Relative binding activity, %: 70%

B28: hu27 (antibody, V domains shown)
VH: B3 VH with A56G, D63N
VL: B2 VL with D85N
notes: 1F5 HC-1/1A2 LC2-1
  Relative binding activity, %: 28%

B29: hu1 (antibody, V domains shown)
VH: B8 VH with Y52F, H57V, T58A, Q62R, N66S, M70L, V72I, K98R
VL: B2 VL with D85N
notes: 1B2 HC-1/1A2 LC2-1
  Relative binding activity, %: 58%

B30: hu28 (antibody, V domains shown)
VH: B3 VH with A56G, D63N
VL: B2 VL
notes: 1F5 HC-1/1A2 LC2-2
  Relative binding activity, %: 71%
